The target of test [1] is Skp1 (OCP2) (Cavia porcellus) (UniProt P63209). The settings on record: cited from earlier work.
For test [2], the target named is Skp1ΔΔ (doubly truncated Dictyostelium Skp1A: Δinternal loop/ΔC-terminus) (Dictyostelium discoideum) (UniProt P52285). Kind of test: AUC.
The target in test [3] is T1, Dictyostelium discoideum Skp1A (Dictyostelium discoideum), P52285.
T1 chain: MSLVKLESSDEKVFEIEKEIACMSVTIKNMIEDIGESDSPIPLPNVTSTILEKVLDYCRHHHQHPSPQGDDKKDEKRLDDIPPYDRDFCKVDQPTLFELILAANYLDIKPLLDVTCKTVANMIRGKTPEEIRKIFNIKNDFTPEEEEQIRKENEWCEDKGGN
Kind of test: AUC. Conditions: remark: other sources report otherwise.

In general, Kd refers to the free concentration of one partner at which half of the binding sites on the other are occupied at equilibrium, for simple one-to-one binding. On to Skp1 (OCP2) (from UniProt P63209), for which the Kd in test [1] is 1100 nM. As usually defined, the stoichiometry N is a count of units in the complex or per binding partner. “Skp1ΔΔ (doubly truncated Dictyostelium Skp1A: Δinternal loop/ΔC-terminus) (from UniProt P52285 1-125) (domain or fragment)” had a stoichiometry N in test [2] of 2.

B1: Dictyostelium discoideum Skp1A, P52285 1-162 (natural protein)
chain: MSLVKLESSDEKVFEIEKEIACMSVTIKNMIEDIGESDSPIPLPNVTSTILEKVLDYCRHHHQHPSPQGDDKKDEKRLDDIPPYDRDFCKVDQPTLFELILAANYLDIKPLLDVTCKTVANMIRGKTPEEIRKIFNIKNDFTPEEEEQIRKENEWCEDKGGN
As for B1, in test [3], the Kd amounted to 2500 nM and the stoichiometry N stood at 2.

The values above are taken from PMC7521599.
